The results in this text go back to patent publication US20230228751 (APTAMER DIAGNOSTICS LIMITED, published 2023).

Where a chain is given by its changes, count along the chain named.

The labels stand for the following.
B1: S1_A6 (ssDNA)
DNA: CCAGTGTAGACTACTCAATGCTGTTATGACTTGACCTTGGGTTATGGGTTTGGGCGGGAGGGTACTATCCACAGGTCAACC
B2: S1_A3-A (ssDNA)
DNA: CCAGTGTAGACTACTCAATGCGTGGGAAGGGTGGGTGGGAGCATTGATAACTCGGAGGAGTGTACTATCCACAGGTCAACC
B3: S1_F2 (ssDNA)
DNA: CCAGTGTAGACTACTCAATGCTGCGTTGACTTGATCCTGTGGTATATGGGTGGGAGGGTCGGGTACTATCCACAGGTCAACC
B4: S1_A8 (ssDNA)
DNA: B3 DNA with C24T
B5: S2_A2 (ssDNA)
DNA: CCAGTGTAGACTACTCAATGCCGATGGGTCGGGGGGGTGGGTAGGCATTGATCGCTCCTTTCGTACTATCCACAGGTCAACC
B6: S2_B1 (ssDNA)
DNA: CCAGTGTAGACTACTCAATGCCGTGGACTGGTCGGGTTTGGATTCGGCAGATGAATCAGTAGTACTATCCACAGGTCAACC
B7: S2_G1 (ssDNA)
DNA: CCAGTGTAGACTACTCAATGCGGCTGTGTGACTTGACCTCTGGATATGGGTGGGAGGGATGGGTACTATCCACAGGTCAACC

The target of one series is T1, SARS-CoV spike S1 subunit (SARS-CoV, UniProt P59594 SEQ:14-667). Nature of the series: ELONA. To be noted: tags: SinoBiological; label: 5'-biotin.
Turning to AATGCGTGGGAAGGGTGGGTGGGAGCATTGATA (ssDNA) [S1_A3_F18], the binding result is “no binding”.

The target of the next series is T2, SARS-CoV-2 spike S1 subunit (SARS-CoV-2, UniProt P0DTC2 SEQ:1-670). The series is described as follows: BLI. To be noted: tags: His tag, SinoBiological 40591-V08B1; label: 5'-biotin. The protocol: The affinity of four chosen aptamers (aptamer S1_A3-A (SEQ ID NO: 4); aptamer S1_A6 (SEQ ID NO: 8); aptamer S1_A8 (SEQ ID NO: 9); aptamer S1_F2 (SEQ ID NO: 43)) was determined using the BLI assay according to the protocol described above. The biotinylated aptamers were immobilised onto streptavidin biosensor probes (as described above) and then interaction monitored with a concentration series of SARS-CoV-2 Spike protein S1 (250 nM, 125 nM, 62.5 nM, 31.25 nM, 15.63 nM, 7.81 nM, 0 nM diluted in 1× ‘high salt’ aptamer selection buffer). KD values were calculated using the ForteBio software (ForteBio Data Analysis 8.0,), using a 2:1 binding model (FIGS. 6 & 7).
With B1, the binding result is listed as “binds”.
On the same count and under the same terms, the value for B2 was “binds”; that for B3 was “binds”; that for B4 was “binds”.

For a further series, the target named is SARS-CoV-2 spike S2 subunit (SARS-CoV-2, UniProt P0DTC2 SEQ:1-528). Nature of the series: BLI. To be noted: label: 5'-biotin.
Consider B5, for which the binding result is reported as “binds”.
With TGGATATGGGTGGGAGGGATGGGT (ssDNA) [S2_G1_F22], the binding result is given as “binds”.
Same read-out and setting: the value for AATGCCGTGGACTGGTCGGGTTTGGATTCGGCA (ssDNA) [S2_B1_F18] was “binds”; that for B6 was “binds”; that for AATGCCGATGGGTCGGGGGGGTGGG (ssDNA) [S2_A2_F17] was “binds”.
Still for that read-out and setting: the value for B7 was “binds”.

A further series has as its target T1, SARS-CoV spike S1 subunit. The series is described as follows: BLI. To be noted: tags: SinoBiological; label: 5'-biotin.
B1: the binding result was “no binding”.
As for B2, the binding result is “no binding”.
Same read-out and setting: to B3 belongs “no binding”; to B4, “no binding”.

Another series concerns the target SARS-CoV-2 spike RBD (SARS-CoV-2, UniProt P0DTC2 SEQ:1-223). The series is described as follows: BLI. To be noted: tags: His tag, SinoBiological 40592-V08H; label: 5'-biotin.
Turning to B1, the binding result is recorded as “binds”.
With B2, the binding result is recorded as “binds”.
Same read-out and setting: the value for B3 was “binds”.
Regarding B4, the binding result is reported as “binds”.

The target in another series is T2, SARS-CoV-2 spike S1 subunit. Nature of the series: BLI. To be noted: tags: His tag, SinoBiological 40591-V08B1; label: 5'-biotin. This is another data set of the same source.
Take AATGCGTGGGAAGGGTGGGTGGGAGCATTGATA (ssDNA) [S1_A3_F18]: the binding result is “binds”.

The next series addresses T3, SARS-CoV-2 spike protein trimer (SARS-CoV-2, UniProt P0DTC2). Nature of the series: BLI. To be noted: label: 5'-biotin. From the text:
The aptamers described herein have been isolated using recombinant proteins which represent portions of the full viral surface spike protein (SEQ ID NO: 117). In particular, an amino acid sequence comprising residues Ser686 to Pro1213 of SEQ ID NO: 119 was used to isolate aptamers against the S2 subunit from the SARS-CoV-2 spike protein. For diagnostic and therapeutic applications of the aptamers, it is desirable that the aptamers are capable of binding to the spike protein in the full trimeric form. For example, any aptamers which bind to regions of the monomer which are not accessible in the trimeric spike may not be capable of binding to the virus and so would be less likely to perform well as a diagnostic or therapeutic. Several of the isolated aptamers and Optimers isolated against the S2 subunit of the SARS-CoV-2 spike protein (SEQ ID NO:119), were assessed for binding to the full trimeric spike using the BLI assay described above. Briefly, exemplar Optimers were immobilised onto BLI sensor probes and assessed for the ability to bind to the full SARS-CoV-2 spike protein trimer at a range of concentrations (500 nM, 166 nM, 55 nM, 18.5 nM, 6.1 nM, 2 nM and 0.6 nM in 1× ‘high salt’ aptamer selection buffer). […] Importantly, each of the S2_A2_F12 SEQ ID NO: 179), S2_B1_F12 SEQ ID NO: 188) and S2_G1_F21 (SEQ ID NO: 190) aptamers has a rapid association rate (0-120 sec) and a slow dissociation rate (120-240 sec); which may be important for many diagnostic applications.
As for TGGATATGGGTGGGAGGGATGGGT (ssDNA) [S2_G1_F22], the binding result is reported as “binds”.
The same measure, in the same setting: the value for AATGCCGTGGACTGGTCGGGTTTGGATTCGGCA (ssDNA) [S2_B1_F18] was “binds”; that for AATGCCGATGGGTCGGGGGGGTGGG (ssDNA) [S2_A2_F17] was “binds”.

Another series has as its target T3, SARS-CoV-2 spike protein trimer. The series is described as follows: ELONA.
Settings: not given
The protocol:
One ELONA plate (immobilised with the S1 binding aptamer A3) was then incubated with a fixed concentration (0.5 μM) of either the aptamer population isolated against the S2 subunit of the SARS-CoV-2 spike protein (S2_8R pool) or full-length aptamer clones S2_A2 (SEQ ID NO: 146), S2_B1 (SEQ ID NO: 150) and S2_G1 (SEQ ID NO: 171) (FIG. 16).
As to B5, the binding result was “binds”.
With B6, the binding result is recorded as “binds”.
Consider B7, for which the binding result is “binds”.

Still in this series, the particulars now being: label: 5' biotin.
For the molecule B2, the binding result is reported as “binds”.
